Measurements published in the supplement of paper PMC9112550, “Optimization of the antimicrobial peptide Bac7 by deep mutational scanning” (BMC Biology, 2022).

test system: Escherichia coli TOP10; assay: shrunken log2 fold change of peptide-encoding DNA abundance (4.5 h post-induction vs induction); higher = less antimicrobial activity (less host growth inhibition); conditions: time post-induction: 4.5 h; library: site-saturation at positions 5, 18, 19, 20
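Note: peptides expressed intracellularly from a pBAD plasmid library in pooled LB shake-flask culture, induced with 0.3% L-arabinose, DNA abundance read by NGS, three biological replicates, DESeq2 with apeglm shrinkage.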

Sequence | shrunken log2 fold change
RRIRSRPPRLPRPRPRPRPPPRP | 1.13
RRIRSRPPRLPRPRPRPRQVPRP | 0.109
RRIRSRPPRLPRPRPRPRRAPRP | 0.41
RRIRSRPPRLPRPRPRPRSGPRP | 0.237
RRIRSRPPRLPRPRPRPRTLPRP | 0.128
RRIRSRPPRLPRPRPRPRVCPRP | 0.366
RRIRSRPPRLPRPRPRPRVNPRP | -0.189
RRIRSRPPRLPRPRPRPRVYPRP | -0.348
RRIRSRPPRLPRPRPRPRWPPRP | 0.553
RRIRSRPPRLPRPRPRPRWRPRP | 0.375
RRIRSRPPRLPRPRPRPRYPPRP | -0.036
RRIRSRPPRLPRPRPRPRYYPRP | -0.554
RRIRSRPPRLPRPRPRPSAAPRP | 0.614
RRIRSRPPRLPRPRPRPSALPRP | -0.0202
RRIRSRPPRLPRPRPRPSCEPRP | -0.0887
RRIRSRPPRLPRPRPRPSCVPRP | -0.152
RRIRSRPPRLPRPRPRPSDWPRP | 0.0164
RRIRSRPPRLPRPRPRPSERPRP | 0.245
RRIRSRPPRLPRPRPRPSFDPRP | -0.264
RRIRSRPPRLPRPRPRPSFIPRP | -0.661
RRIRSRPPRLPRPRPRPSFWPRP | 0.079
RRIRSRPPRLPRPRPRPSFYPRP | -0.684
RRIRSRPPRLPRPRPRPSGSPRP | -0.151
RRIRSRPPRLPRPRPRPSHNPRP | -0.784
RRIRSRPPRLPRPRPRPSKCPRP | -0.0382

Sequence | shrunken log2 fold change
RRIRSRPPRLPRPRPRPSKFPRP | -0.779
RRIRSRPPRLPRPRPRPSKGPRP | -0.142
RRIRSRPPRLPRPRPRPSNTPRP | -0.748
RRIRSRPPRLPRPRPRPSPWPRP | -0.0643
RRIRSRPPRLPRPRPRPSQHPRP | -0.24
RRIRSRPPRLPRPRPRPSRDPRP | -0.0156
RRIRSRPPRLPRPRPRPSRKPRP | -0.0434
RRIRSRPPRLPRPRPRPSVKPRP | -0.068
RRIRSRPPRLPRPRPRPSVLPRP | -0.222
RRIRSRPPRLPRPRPRPSWQPRP | -0.227
RRIRSRPPRLPRPRPRPSYGPRP | -0.0636
RRIRSRPPRLPRPRPRPSYMPRP | -1.1
RRIRSRPPRLPRPRPRPTADPRP | 0.275
RRIRSRPPRLPRPRPRPTAIPRP | -0.0172
RRIRSRPPRLPRPRPRPTCKPRP | 0.107
RRIRSRPPRLPRPRPRPTCQPRP | 0.0682
RRIRSRPPRLPRPRPRPTDHPRP | -0.339
RRIRSRPPRLPRPRPRPTDQPRP | 0.16
RRIRSRPPRLPRPRPRPTEDPRP | 0.14
RRIRSRPPRLPRPRPRPTEFPRP | 0.153
RRIRSRPPRLPRPRPRPTEQPRP | -0.0196
RRIRSRPPRLPRPRPRPTERPRP | 0.142
RRIRSRPPRLPRPRPRPTESPRP | 0.0325
RRIRSRPPRLPRPRPRPTGAPRP | 0.633
RRIRSRPPRLPRPRPRPTGKPRP | 0.274

Sequence | shrunken log2 fold change
RRIRSRPPRLPRPRPRPTGRPRP | 0.15
RRIRSRPPRLPRPRPRPTGYPRP | 0.0189
RRIRSRPPRLPRPRPRPTHCPRP | 0.36
RRIRSRPPRLPRPRPRPTIGPRP | 0.0365
RRIRSRPPRLPRPRPRPTIKPRP | -0.29
RRIRSRPPRLPRPRPRPTITPRP | -0.229
RRIRSRPPRLPRPRPRPTLRPRP | -0.197
RRIRSRPPRLPRPRPRPTLTPRP | 0.206
RRIRSRPPRLPRPRPRPTMLPRP | -0.119
RRIRSRPPRLPRPRPRPTNMPRP | -0.465
RRIRSRPPRLPRPRPRPTQKPRP | 0.375
RRIRSRPPRLPRPRPRPTQRPRP | 0.547
RRIRSRPPRLPRPRPRPTRQPRP | 0.215
RRIRSRPPRLPRPRPRPTRSPRP | 0.784
RRIRSRPPRLPRPRPRPTRYPRP | -0.198
RRIRSRPPRLPRPRPRPTVYPRP | 0.0113
RRIRSRPPRLPRPRPRPTWAPRP | 0.518
RRIRSRPPRLPRPRPRPTWGPRP | 0.134
RRIRSRPPRLPRPRPRPTWNPRP | -0.0149
RRIRSRPPRLPRPRPRPTYMPRP | -0.55
RRIRSRPPRLPRPRPRPVAIPRP | -0.28
RRIRSRPPRLPRPRPRPVASPRP | -0.151
RRIRSRPPRLPRPRPRPVCMPRP | -0.053
RRIRSRPPRLPRPRPRPVDCPRP | -0.12
RRIRSRPPRLPRPRPRPVEAPRP | -0.0651

Sequence | shrunken log2 fold change
RRIRSRPPRLPRPRPRPVEHPRP | -0.16
RRIRSRPPRLPRPRPRPVEKPRP | -0.0804
RRIRSRPPRLPRPRPRPVELPRP | 0.105
RRIRSRPPRLPRPRPRPVFHPRP | -0.026
RRIRSRPPRLPRPRPRPVFRPRP | -0.113
RRIRSRPPRLPRPRPRPVGCPRP | 0.281
RRIRSRPPRLPRPRPRPVGMPRP | 0.12
RRIRSRPPRLPRPRPRPVGPPRP | 0.373
RRIRSRPPRLPRPRPRPVIRPRP | -0.213
RRIRSRPPRLPRPRPRPVKEPRP | 0.0656
RRIRSRPPRLPRPRPRPVLDPRP | -0.058
RRIRSRPPRLPRPRPRPVLEPRP | 0.0953
RRIRSRPPRLPRPRPRPVLNPRP | -0.169
RRIRSRPPRLPRPRPRPVLRPRP | 0.0904
RRIRSRPPRLPRPRPRPVLVPRP | 0.242
RRIRSRPPRLPRPRPRPVMSPRP | 0.11
RRIRSRPPRLPRPRPRPVNRPRP | -0.107
RRIRSRPPRLPRPRPRPVQLPRP | 0.348
RRIRSRPPRLPRPRPRPVQRPRP | 0.363
RRIRSRPPRLPRPRPRPVRKPRP | 0.324
RRIRSRPPRLPRPRPRPVSNPRP | -0.0276
RRIRSRPPRLPRPRPRPVYEPRP | -0.617
RRIRSRPPRLPRPRPRPVYKPRP | -0.166
RRIRSRPPRLPRPRPRPVYTPRP | -0.105
RRIRSRPPRLPRPRPRPWAIPRP | -0.191

Sequence | shrunken log2 fold change
RRIRSRPPRLPRPRPRPWCAPRP | 0.0451
RRIRSRPPRLPRPRPRPWCRPRP | -0.398
RRIRSRPPRLPRPRPRPWDTPRP | -0.0299
RRIRSRPPRLPRPRPRPWFHPRP | -0.664
RRIRSRPPRLPRPRPRPWGAPRP | 0.0522
RRIRSRPPRLPRPRPRPWGKPRP | -0.109
RRIRSRPPRLPRPRPRPWGNPRP | -0.236
RRIRSRPPRLPRPRPRPWHAPRP | 0.0362
RRIRSRPPRLPRPRPRPWHNPRP | -0.00544
RRIRSRPPRLPRPRPRPWKGPRP | -0.0267
RRIRSRPPRLPRPRPRPWKPPRP | -0.0117
RRIRSRPPRLPRPRPRPWLEPRP | -0.0707
RRIRSRPPRLPRPRPRPWLKPRP | 0.0524
RRIRSRPPRLPRPRPRPWLYPRP | -0.652
RRIRSRPPRLPRPRPRPWNAPRP | -0.443
RRIRSRPPRLPRPRPRPWNRPRP | -0.125
RRIRSRPPRLPRPRPRPWNTPRP | -0.237
RRIRSRPPRLPRPRPRPWRFPRP | 0.566
RRIRSRPPRLPRPRPRPWSMPRP | -0.176
RRIRSRPPRLPRPRPRPWTDPRP | -0.12
RRIRSRPPRLPRPRPRPWVLPRP | 2.29
RRIRSRPPRLPRPRPRPWYQPRP | -0.314
RRIRSRPPRLPRPRPRPYAGPRP | 0.0441
RRIRSRPPRLPRPRPRPYAVPRP | -0.137
RRIRSRPPRLPRPRPRPYDQPRP | -0.21

Sequence | shrunken log2 fold change
RRIRSRPPRLPRPRPRPYDTPRP | -0.532
RRIRSRPPRLPRPRPRPYDYPRP | -0.305
RRIRSRPPRLPRPRPRPYERPRP | -0.0323
RRIRSRPPRLPRPRPRPYFEPRP | -0.359
RRIRSRPPRLPRPRPRPYFKPRP | -0.857
RRIRSRPPRLPRPRPRPYFLPRP | -0.885
RRIRSRPPRLPRPRPRPYGDPRP | -0.115
RRIRSRPPRLPRPRPRPYGKPRP | -0.0603
RRIRSRPPRLPRPRPRPYGTPRP | -0.196
RRIRSRPPRLPRPRPRPYHMPRP | -1.26
RRIRSRPPRLPRPRPRPYIDPRP | -0.071
RRIRSRPPRLPRPRPRPYINPRP | -0.879
RRIRSRPPRLPRPRPRPYLAPRP | -0.251
RRIRSRPPRLPRPRPRPYMIPRP | -1.11
RRIRSRPPRLPRPRPRPYMNPRP | -0.479
RRIRSRPPRLPRPRPRPYMYPRP | -0.466
RRIRSRPPRLPRPRPRPYNHPRP | -1.54
RRIRSRPPRLPRPRPRPYNQPRP | -0.642
RRIRSRPPRLPRPRPRPYPFPRP | -0.716
RRIRSRPPRLPRPRPRPYPLPRP | -0.105
RRIRSRPPRLPRPRPRPYRKPRP | -0.901
RRIRSRPPRLPRPRPRPYSTPRP | -1.05
RRIRSRPPRLPRPRPRPYTNPRP | -1.46
RRIRSRPPRLPRPRPRPYVYPRP | -0.852
RRIRSRPPRLPRPRPRPYWVPRP | -0.314
